Results as given in the supplement of paper PMC10126150.
± gives the standard deviation of the averaged measurements.

System: ATP
Assay: switch fluorescence ratio, 500 uM ATP over buffer (Cy3 cluster intensity, sum of 5 cycles each) (fold (ratio)); higher = stronger signal-on switching upon ATP binding; sequences stand for … in TCGTCGGCAGCGTCAGATGTGTATAAGAGACAGTTTTTTTTTTTTTTTTTTTTTTTTT…TC
Details: aptamer strand: ATP DNA aptamer (quencher-CACCTGGGGGAGTATTGCGGAGGAAGG + anchor), 100 nM annealed; ATP concentration: 500 uM
How it was run: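 The fluorescence ratio divides summed target-cycle Cy3 intensity by summed buffer-cycle Cy3 intensity for each cluster and is averaged per switch-domain sequence. Cy3-labelled switching-strand clusters on a modified Illumina MiSeq flow-cell were annealed to 100 nM quencher-labelled ATP aptamer, then imaged in selection buffer and again after 15 min with 500 uM ATP at 22 °C. Five such cycles were run, with NaOH stripping and re-annealing between them, and clusters outside 100-1000 RFU were excluded.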
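Note: ATP exposure 15 min at 22 °C before imaging.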

| Sequence | switch fluorescence ratio |
| --- | --- |
| TGACAGTCGT | 0.977 ± 0.024 |
| TGACATCATT | 1.063 ± 0.002 |
| TGACATTGTA | 1.01 ± 0.072 |
| TGACGACGAG | 0.992 ± 0.052 |
| TGACGACTGT | 1 ± 0.021 |
| TGACGCAAGG | 2.8 ± 0.093 |
| TGACGCGGGG | 1.054 ± 0.0086 |
| TGACGCGTCA | 1.01 ± 0.013 |
| TGACGGAAGG | 1 ± 0.032 |
| TGACGGGGGC | 1.01 ± 0.014 |
| TGACGTAGTG | 0.991 ± 0.028 |
| TGACGTCGTA | 0.9689 ± 0.0094 |
| TGACGTGTTG | 1.02 ± 0.083 |
| TGACGTTAAA | 1.04 ± 0.067 |
| TGACGTTCGG | 0.978 ± 0.029 |
| TGACGTTGAG | 0.9868 ± 0.0056 |
| TGACGTTTGC | 1.03 ± 0.12 |
| TGACTAGTTT | 1.005 ± 0.0059 |
| TGACTCGGTG | 0.984 ± 0.015 |
| TGACTTAGTT | 0.999 ± 0.051 |
| TGACTTGCGT | 0.971 ± 0.042 |
| TGAGAACGCA | 1.2 ± 0.054 |
| TGAGAAGCAA | 1.34 ± 0.056 |
| TGAGAATTTT | 0.996 ± 0.032 |
| TGAGACAAGC | 1.05 ± 0.012 |
| TGAGAGGAGG | 1 ± 0.028 |

| Sequence | switch fluorescence ratio |
| --- | --- |
| TGAGAGGGGC | 0.973 ± 0.058 |
| TGAGAGGTTT | 0.9817 ± 0.0014 |
| TGAGATGAAG | 1.005 ± 0.0085 |
| TGAGATTGC | 1.03 ± 0.053 |
| TGAGCAGGTT | 1.017 ± 0.0094 |
| TGAGCATGCT | 1 ± 0.021 |
| TGAGCGAAGG | 0.9807 ± 0.0057 |
| TGAGCGGAGG | 1.01 ± 0.002 |
| TGAGCGGATG | 0.994 ± 0.036 |
| TGAGCGGGAG | 1.0564 ± 0.00029 |
| TGAGCGGGGG | 0.996 ± 0.021 |
| TGAGCTAAAT | 1.18 ± 0.31 |
| TGAGCTATAT | 1.42 ± 0.077 |
| TGAGCTCACG | 1.02 ± 0.027 |
| TGAGCTTGGG | 0.99 ± 0.022 |
| TGAGGAATGG | 0.9987 ± 0.0036 |
| TGAGGATACA | 1.016 ± 0.0029 |
| TGAGGATATA | 0.9887 ± 0.0059 |
| TGAGGATGGG | 0.975 ± 0.026 |
| TGAGGCCCCG | 0.991 ± 0.025 |
| TGAGGCTATG | 1 ± 0.021 |
| TGAGGCTGGG | 1.02 ± 0.054 |
| TGAGGGATGA | 1.028 ± 0.0075 |
| TGAGGGCAGC | 0.993 ± 0.026 |
| TGAGGGCGAT | 1.033 ± 0.0019 |
| TGAGGGGAGA | 1.02 ± 0.028 |

| Sequence | switch fluorescence ratio |
| --- | --- |
| TGAGGGGAGG | 1.13 ± 0.15 |
| TGAGGGGATG | 0.994 ± 0.023 |
| TGAGGGGGG | 1.01 ± 0.022 |
| TGAGGTAAGG | 0.997 ± 0.033 |
| TGAGGTACTA | 0.999 ± 0.053 |
| TGAGGTAGGG | 0.976 ± 0.053 |
| TGAGGTTAGA | 1.03 ± 0.029 |
| TGAGTAACGG | 1.02 ± 0.04 |
| TGAGTAAGGA | 1.03 ± 0.034 |
| TGAGTAAGGT | 0.995 ± 0.04 |
| TGAGTAATAG | 2.01 ± 0.87 |
| TGAGTAGCGT | 0.9631 ± 0.0063 |
| TGAGTCGGGA | 1.01 ± 0.014 |
| TGAGTCGTTG | 0.972 ± 0.01 |
| TGAGTGCTCT | 0.9733 ± 0.0062 |
| TGAGTGCTGC | 1.08 ± 0.075 |
| TGAGTGCTGG | 0.9741 ± 0.0017 |
| TGAGTGGACC | 0.992 ± 0.047 |
| TGAGTGGGTC | 1.03 ± 0.013 |
| TGAGTGTAGA | 1.07 ± 0.023 |
| TGAGTTTCGG | 0.9869 ± 0.0098 |
| TGATAAATTT | 1.01 ± 0.023 |
| TGATAAGGGG | 1.01 ± 0.039 |
| TGATACGCTA | 1.28 ± 0.23 |
